Assay results reported in patent US20110263454A1, “Methods of Identifying Functional Characteristics of Promoters, Transcription Modifying Proteins and Transcription Modulating Agents” (Salk Institute for Biological Studies, priority 2008, published 2011).

Assays:
mPOMC promoter = assay: NHR-promoter luciferase screen, mPOMC promoter; format: cell-based, mouse; settings: for Results of assays of transcription factor (+/- ligand) with mPOMC: Table 6d, luciferase activity relative to control (control = 1.00); for Luc. act., normalized to lacZ / Normalized Luc. act., normalized to control: mPOMC promoter, HR component with or without ligand; for Normalized Luc. act., normalized to control: relative to control
How it was run: (§1)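 CV-1 cells were co-transfected with 50 ng NHR (homodimer or NHR/RXR heterodimer), 100 ng promoter-luciferase construct and 50 ng LacZ. Luciferase was normalized to LacZ and to a no-NHR/no-ligand control.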

RevErba promoter = assay: NHR-promoter luciferase screen, RevErba (RVRa) promoter; format: cell-based; set-up: key to mRevErba promoter reporter activity / Normalized Luc. act., normalized to control: luciferase activity normalized to lacZ and to control (no NHR/ligand); settings: for Luc. act., normalized to lacZ / Normalized Luc. act., normalized to control / negative reciprocal of normalized Luc. act. (fold repression; Table 33) / normalized Luc. act. on a logarithmic scale (column without head, Table 33): RVRa promoter; for Luc. act., normalized to lacZ / Normalized Luc. act., normalized to control: HR component without or with ligand; for negative reciprocal of normalized Luc. act. (fold repression; Table 33): given only where activity is below control; for normalized Luc. act. on a logarithmic scale (column without head, Table 33): log10 of activity normalized to control; for mRevErba promoter reporter activity: transcription factor +/- ligand, control = 1.00
How it was run: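 CV-1 cells co-transfected with NHR (pcDNA3.1, C-terminal V5H6 tag) as homodimer or RXR heterodimer, RevErbα promoter–luciferase reporter and LacZ transfection control; ligand added where applicable. Luciferase normalized to LacZ and to no-NHR/no-ligand control.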

hG6PD promoter = assay: NHR-promoter luciferase screen, hG6PD promoter; format: cell-based, human; settings: for Luc. act., normalized to lacZ / Normalized Luc. act., normalized to control: G6PD promoter reporter, co-transfected HR, without or with its ligand; for Normalized Luc. act., normalized to control: relative to control; for luciferase activity normalized to lacZ activity and to a control, hG6PD: hG6PD promoter-luciferase, CV-1 cells, NHR +/- ligand, control = 1.00
How it was run: as §1

hPPARg1 promoter = assay: NHR-promoter luciferase screen, hPPARg1 promoter; format: cell-based, human; settings: for Luc. act., normalized to lacZ / Normalized Luc. act., normalized to control: PPARG1 promoter, hormone receptor with or without its ligand; for Normalized Luc. act., normalized to control: relative to control; for Results of assays of transcription factor (+/- ligand) with hPPARg1: Table 6d, luciferase activity relative to control (control = 1.00)
How it was run: as §1

hPOMC promoter = assay: NHR-promoter luciferase screen, hPOMC promoter; format: cell-based, human; settings: for Normalized Luc. act., normalized to control / Luc. act., normalized to lacZ: hPOMC promoter, HR/ligand component; for hPOMC promoter reporter activity: transcription factor +/- ligand, control = 1.00
How it was run: as §1

Row | Molecule | Results of assays of transcription factor (+/- ligand) with mPOMC (mPOMC promoter) | Luc. act., normalized to lacZ (mPOMC promoter) | Normalized Luc. act., normalized to control (mPOMC promoter) | Luc. act., normalized to lacZ (RevErba promoter) | Normalized Luc. act., normalized to control (RevErba promoter) | negative reciprocal of normalized Luc. act. (fold repression; Table 33) (RevErba promoter) | normalized Luc. act. on a logarithmic scale (column without head, Table 33) (RevErba promoter) | mRevErba promoter reporter activity (RevErba promoter) | Luc. act., normalized to lacZ (hG6PD promoter) | Normalized Luc. act., normalized to control (hG6PD promoter) | luciferase activity normalized to lacZ activity and to a control, hG6PD (hG6PD promoter) | Luc. act., normalized to lacZ (hPPARg1 promoter) | Normalized Luc. act., normalized to control (hPPARg1 promoter) | Results of assays of transcription factor (+/- ligand) with hPPARg1 (hPPARg1 promoter) | Normalized Luc. act., normalized to control (hPOMC promoter) | hPOMC promoter reporter activity (hPOMC promoter) | Luc. act., normalized to lacZ (hPOMC promoter) | luciferase/LacZ, hPOMC (selected results) (hPOMC promoter; hPOMC promoter-luciferase, NHR +/- ligand, control = 1.0)
1 | CTF2: COUP-TF2 (NR2F2), cDNA driver (protein, UniProt P24468 1-414, looked up) COUP transcription factor 2: MAMVVSTWRDPQDEVPGSQGSQASQAPPVPGPPPGAPHTPQTPGQGGPASTPAQTAAGGQGGPGGPGSDKQQQQQHIECVVCGDKSSGKHYGQFTCEGCKSFFKRSVRRNLSYTCRANRNCPIDQHHRNQCQYCRLKKCLKVGMRREAVQRGRMPPTQPTHGQFALTNGDPLNCHSYLSGYISLLLRAEPYPTSRFGSQCMQPNNIMGIENICELAARMLFSAVEWARNIPFFPDLQITDQVALLRLTWSELFVLNAAQCSMPLHVAPLLAAAGLHASPMSADRVVAFMDHIRIFQEQVEKLKALHVDSAEYSCLKAIVLFTSDACGLSDVAHVESLQEKSQCALEEYVRSQYPNQPTRFGKLLLRLPSLRTVSSSVIEQLFFVRLVGKTPIETLIRDMLLSGSSFNWPYMAIQ | 0.94 | 64.6 | 0.9 | 27.2 | 1.0 | −1.027 | −0.01 | 0.97 | 43.9 | 1.2 | 1.17 | 43.9 | 0.6 | 0.64 | 0.0 | 0.00 | – | –
2 | CTF1: COUP-TF1 (NR2F1), cDNA driver (protein, UniProt P10589 1-423, looked up) COUP transcription factor 1: MAMVVSSWRDPQDDVAGGNPGGPNPAAQAARGGGGGAGEQQQQAGSGAPHTPQTPGQPGAPATPGTAGDKGQGPPGSGQSQQHIECVVCGDKSSGKHYGQFTCEGCKSFFKRSVRRNLTYTCRANRNCPIDQHHRNQCQYCRLKKCLKVGMRREAVQRGRMPPTQPNPGQYALTNGDPLNGHCYLSGYISLLLRAEPYPTSRYGSQCMQPNNIMGIENICELAARLLFSAVEWARNIPFFPDLQITDQVSLLRLTWSELFVLNAAQCSMPLHVAPLLAAAGLHASPMSADRVVAFMDHIRIFQEQVEKLKALHVDSAEYSCLKAIVLFTSDACGLSDAAHIESLQEKSQCALEEYVRSQYPNQPSRFGKLLLRLPSLRTVSSSVIEQLFFVRLVGKTPIETLIRDMLLSGSSFNWPYMSIQCS | 0.73 | 50.0 | 0.7 | 18.5 | 0.7 | −1.51 | −0.18 | 0.66 | 39.7 | 1.1 | 1.06 | 39.7 | 0.6 | 0.58 | 0.0 | 0.00 | – | –
3 | ERR2: Estrogen Related Receptor β (NR3B2, ERRb), cDNA driver (protein, UniProt O95718 1-433, looked up) Steroid hormone receptor ERR2: MSSDDRHLGSSCGSFIKTEPSSPSSGIDALSHHSPSGSSDASGGFGLALGTHANGLDSPPMFAGAGLGGTPCRKSYEDCASGIMEDSAIKCEYMLNAIPKRLCLVCGDIASGYHYGVASCEACKAFFKRTIQGNIEYSCPATNECEITKRRRKSCQACRFMKCLKVGMLKEGVRLDRVRGGRQKYKRRLDSESSPYLSLQISPPAKKPLTKIVSYLLVAEPDKLYAMPPPGMPEGDIKALTTLCDLADRELVVIIGWAKHIPGFSSLSLGDQMSLLQSAWMEILILGIVYRSLPYDDKLVYAEDYIMDEEHSRLAGLLELYRAILQLVRRYKKLKVEKEEFVTLKALALANSDSMYIEDLEAVQKLQDLLHEALQDYELSQRHEEPWRTGKLLLTLPLLRQTAAKAVQHFYSVKLQGKVPMHKLFLEMLEAKV | 1.57 | 108.6 | 1.6 | 42.3 | 1.5 | – | 0.18 | 1.51 | 59.1 | 1.6 | 1.58 | 59.1 | 0.9 | 0.86 | 2.7 | 2.70 | 11.6 | –
4 | ERR3: Estrogen Related Receptor γ (NR3B3, ERRg), cDNA driver (protein, UniProt P62508 1-458, looked up) Estrogen-related receptor …: MDSVELCLPESFSLHYEEELLCRMSNKDRHIDSSCSSFIKTEPSSPASLTDSVNHHSPGGSSDASGSYSSTMNGHQNGLDSPPLYPSAPILGGSGPVRKLYDDCSSTIVEDPQTKCEYMLNSMPKRLCLVCGDIASGYHYGVASCEACKAFFKRTIQGNIEYSCPATNECEITKRRRKSCQACRFMKCLKVGMLKEGVRLDRVRGGRQKYKRRIDAENSPYLNPQLVQPAKKPYNKIVSHLLVAEPEKIYAMPDPTVPDSDIKALTTLCDLADRELVVIIGWAKHIPGFSTLSLADQMSLLQSAWMEILILGVVYRSLSFEDELVYADDYIMDEDQSKLAGLLDLNNAILQLVKKYKSMKLEKEEFVTLKAIALANSDSMHIEDVEAVQKLQDVLHEALQDYEAGQHMEDPRRAGKMLMTLPLLRQTSTKAVQHFYNIKLEGKVPMHKLFLEMLEAKV | 2.02 | 139.4 | 2.0 | 123.1 | 4.4 | – | 0.64 | 4.40 | 63.7 | 1.7 | 1.70 | 63.7 | 0.9 | 0.92 | 4.1 | 4.09 | 17.6 | 4.1
5 | Erb: Estrogen Receptor β (NR3A2, ERb), cDNA driver (protein, UniProt Q92731 1-530, looked up) Estrogen receptor beta: MDIKNSPSSLNSPSSYNCSQSILPLEHGSIYIPSSYVDSHHEYPAMTFYSPAVMNYSIPSNVTNLEGGPGRQTTSPNVLWPTPGHLSPLVVHRQLSHLYAEPQKSPWCEARSLEHTLPVNRETLKRKVSGNRCASPVTGPGSKRDAHFCAVCSDYASGYHYGVWSCEGCKAFFKRSIQGHNDYICPATNQCTIDKNRRKSCQACRLRKCYEVGMVKCGSRRERCGYRLVRRQRSADEQLHCAGKAKRSGGHAPRVRELLLDALSPEQLVLTLLEAEPPHVLISRPSAPFTEASMMMSLTKLADKELVHMISWAKKIPGFVELSLFDQVRLLESCWMEVLMMGLMWRSIDHPGKLIFAPDLVLDRDEGKCVEGILEIFDMLLATTSRFRELKLQHKEYLCVKAMILLNSSMYPLVTATQDADSSRKLAHLLNAVTDALVWVIAKSGISSQQQSMRLANLLMLLSHVRHASNKGMEHLLNMKCKNVVPVYDLLLEMLNAHVLRGCKSSITGSECSPAEDSKSKEGSQNPQSQ | 1.00 | 69.1 | 1.0 | 20.0 | 0.7 | −1.397 | −0.15 | 0.72 | 45.3 | 1.2 | 1.21 | 45.3 | 0.7 | 0.66 | 0.7 | 0.74 | 3.2 | –
6 | CTF3: COUP-TF3 (NR2F6), cDNA driver (protein, UniProt P10588 1-404, looked up) Nuclear receptor subfamily 2 …: MAMVTGGWGGPGGDTNGVDKAGGYPRAAEDDSASPPGAASDAEPGDEERPGLQVDCVVCGDKSSGKHYGVFTCEGCKSFFKRSIRRNLSYTCRSNRDCQIDQHHRNQCQYCRLKKCFRVGMRKEAVQRGRIPHSLPGAVAASSGSPPGSALAAVASGGDLFPGQPVSELIAQLLRAEPYPAAAGRFGAGGGAAGAVLGIDNVCELAARLLFSTVEWARHAPFFPELPVADQVALLRLSWSELFVLNAAQAALPLHTAPLLAAAGLHAAPMAAERAVAFMDQVRAFQEQVDKLGRLQVDSAEYGCLKAIALFTPDACGLSDPAHVESLQEKAQVALTEYVRAQYPSQPQRFGRLLLRLPALRAVPASLISQLFFMRLVGKTPIETLIRDMLLSGSTFNWPYGSGQ | 0.75 | 51.8 | 0.8 | 19.1 | 0.7 | −1.467 | −0.17 | 0.68 | 32.5 | 0.9 | 0.87 | 32.5 | 0.5 | 0.47 | 0.4 | 0.42 | 1.8 | –
